The text below walks through data of PMC8304084, “A Concerted Action of UBA5 C-Terminal Unstructured Regions Is Important for Transfer of Activated UFM1 to UFC1” (International Journal of Molecular Sciences, 2021).

Common to all, as to format: binding
One assay relates to Ub. In words: Interaction of ubiquitin with UBA5 C-terminal region. As to the method: (§1) All ITC experiments were performed at 25 °C using a VP-ITC microcalorimeter (Malvern Panalytical Ltd., Malvern, UK). Peptides in concentration of ~400 µM were titrated into 20–25 µM solutions of corresponding binding partner at a stirring speed of 307 rpm. The raw data were corrected on the dilution heat of peptides obtained in independent experiment (titration of the peptide in syringe into the ITC/NMR buffer in the measuring cell). Pre-titration delay was set to 180 s, interval between titration steps was experimentally adjusted to avoid kinetic contribution to the observed heat effects and set to 200 s. A single ITC profile was collected for each type of interaction. The ITC data were analyzed based on a “one-site” binding model with MicroCal ITC software implemented in Origin 7.0.

For a further assay, the target named is T1, LC3B (Homo sapiens, UniProt Q9GZQ8).
T1 construct: LC3B, residues 5–120; ubiquitin tag Ub3 (vector pETm60_Ub3) (cleaved yes); made in house; host or cells: E. coli T7 Express
In words: ITC, UBA5 peptides vs LC3B. Particulars: 25 °C, vs LC3B.
Description: (§2) To understand how the UBA5 C-terminus participates in the ufmylation cascade, we performed isothermal titration calorimetry (ITC) experiments, in which we titrated UBA5 C-terminal peptides (see Table 1) to the UBA5 AD, UFC1, UFM1 and representative LC3/GABARAP proteins (Figure 2A, Supplementary Figure S2A–D and Table 2).
(§3) All proteins and peptides were expressed in E.Coli T7 Express (New England Biolabs GmbH, Frankfurt, Germany) cells in LB or M9 (to obtain ^15N- and ^13C,^15N-labeled polypeptides) media according to the protocol described in [33, 36]. For protein purification, bacterial cell pellets were resuspended in lysis buffer (50 mM Tris-HCl pH = 7.5, 100 mM NaCl, 5% glycerol, 5 mM PIC (protease inhibitor cocktail)) and lysed via sonication (TT13 Sonotrode, 40% amplitude, for 6 × 1 min with a 0.5/0.5-s pulse). Lysates were centrifuged for 45 min at 17,000× g at 4 °C. Supernatants were loaded onto a His Trap Fast Flow 5 mL column (GE Healthcare, München, Germany) equilibrated in loading buffer (50 mM Tris-HCl pH = 8.0, 250 mM NaCl, 1% glycerol, 20 mM imidazole). The column was washed with loading buffer for 5–10 CV and protein was eluted with elution buffer (50 mM Tris-HCl pH = 8, 250 mM NaCl, 1% glycerol, 400 mM imidazole). Simultaneous TEV cleavage (1 mg TEV protease was added to 100 mg peptides/proteins) and buffer exchange to loading buffer via dialysis was performed over night at 4 °C. After reverse IMAC, proteins were concentrated with conical concentrators (Millipore Merck, Darmstadt, Germany) and loaded on a Superdex 10/60 75 or 200 column (GE Healthcare, München, Germany) for further purification and equilibration with ITC/NMR buffer (25 mM HEPES pH = 7.5, 100 mM NaCl). For structural NMR spectroscopy, buffer containing 50 mM Tris-HCl pH = 7.5, 100 mM NaCl was used. Prior to NMR experiments, TCEP and protease inhibitors cocktail were added to the samples to final concentrations 1 and 5 mM, respectively. Purified peptides and protein were concentrated and stored at −80 °C. The protein and peptide concentrations were calculated from the UV absorption at 280 nm by Nanodrop spectrophotometer (Thermo Scientific, Langenselbold, Germany).
as §1

Assay [1] deals with T2, UFC1 (Homo sapiens, UniProt Q9Y3C8).
T2 construct: Full length UFC1, residues 1–167; modified ubiquitin tag (Ub19) with TEV site (N, cleaved yes); made in house; host or cells: E. coli T7 Express
T2 sequence (Q9Y3C8 1-167): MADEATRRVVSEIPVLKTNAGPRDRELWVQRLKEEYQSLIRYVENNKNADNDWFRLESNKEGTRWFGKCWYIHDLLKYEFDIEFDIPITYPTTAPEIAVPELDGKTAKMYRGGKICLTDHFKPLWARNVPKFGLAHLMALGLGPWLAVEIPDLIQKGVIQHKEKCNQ
In words: ITC, UBA5 constructs vs UFC1.
Description: as §2
To investigate if conjugation of UFM1 to the UBA5 catalytic cysteine (C250) affects the UFC1:UBA5 interactions, we prepared full length UBA5 C250K mutant and stably conjugated UFM1 to it as reported before for a number of ubiquitin-specific E2 enzymes. We compared the UFC1 spectra after addition of a twofold molar excess of FL^1–404 and FL^1–404 C250K~UFM1 constructs (Supplementary Figure S5C).
as §3, §1

For assay [2], the target named is T2, UFC1. In words: NMR titration with UFC1. The settings on record: [15N,1H] TROSY-HSQC, 25 °C. As to the method: To understand the role of the UBA5 C-terminal region in coordination of the binding events reported above on the molecular level, we performed NMR titration experiments. […] It seems, that these UBA5 residues form additional interactions with UFC1.
All NMR experiments were performed at a sample temperature of 25 °C on Bruker 600, 700, 800, 900, and 950 MHz spectrometers equipped with cryogenic probes, and a 500 MHz spectrometer equipped with a room-temperature triple-resonance probe. All NMR spectra were analyzed with the Sparky 3.114 software (University of California, San Francisco, USA). For NMR titration experiments, the non-labeled UBA5 peptides were titrated to 100 µM ^13C,^15N-labeled UFC1 to a final molar ratio of 1:8 (UFC1:UBA5 peptide). Conversely, 100 µM ^13C,^15N-labeled UBA5 peptides were titrated with non-labeled UFC1 to a final molar ratio 1:4 (UBA5 peptide:UFC1). 2D ^1H-^15N correlation spectra ([^15N,^1H] TROSY-HSQC) were recorded at each titration point. The same types of spectra were recorded to estimate binding of ^13C,^15N-labeled UFC1 (75 µM) to non-labeled UBA5, UBA5~UFM1 and UFM1 at 1:2 molar ratios. CSP values, Δδ, were calculated for each individual amide group using the formula Δδ = [(ΔδN/5)^2 + Δδ^2HN)]^1/2.

A further assay deals with T3, GABARAP (Homo sapiens, UniProt O95166).
T3 construct: modified ubiquitin tag (Ub19) with TEV site (N, cleaved yes); made in house; host or cells: E. coli T7 Express
T3 sequence (O95166 3-116): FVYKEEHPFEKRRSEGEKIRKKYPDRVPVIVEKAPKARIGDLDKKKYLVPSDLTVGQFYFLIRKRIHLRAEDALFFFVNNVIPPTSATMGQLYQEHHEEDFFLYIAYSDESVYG
In words: ITC, UBA5 peptides vs GABARAP. The settings on record: 25 °C.
Description: as §2
as §3, with “For structural NMR spectroscopy, buffer containing 50 mM Tris-HCl pH = 7.5, 100 mM NaCl was used. Prior to NMR experiments, TCEP and protease inhibitors cocktail were added to the samples to final concentrations 1 and 5 mM, respectively. Purified peptides and protein were concentrated and stored at −80 °C.” left out
All ITC experiments were performed at 25 °C using a VP-ITC microcalorimeter (Malvern Panalytical Ltd., Malvern, UK). […] The ITC data were analyzed based on a “one-site” binding model with MicroCal ITC software implemented in Origin 7.0.

pKd: −log10 of the molar value.

Regarding “R1-R2-R3^325–404: UBA5 C-terminal part, residues 325–404 (recombinant, E. coli)”, in the assay on Ub, the interaction with ubiquitin result is “no interaction”. Moreover, the ΔG is -7.33 kcal/mol with LC3B; -7.66 kcal/mol in the assay with UFC1 [1] (ITC, 25 °C, peptide vs UFC1); -8.15 kcal/mol with GABARAP. Moreover, the ΔS with LC3B was 8.86 cal mol^−1 K^−1; in the assay with UFC1 [1] (ITC, 25 °C, peptide vs UFC1, one-site model, single profile), 2.09 cal mol^−1 K^−1; with GABARAP, 24.2 cal mol^−1 K^−1. For the same substance, the “−T*ΔS” value with LC3B was -2.64 kcal/mol; with UFC1 [1] (ITC, 25 °C, peptide vs UFC1), -0.62 kcal/mol; with GABARAP, -7.22 kcal/mol. For the same substance, the “KA*10^−6” value is 0.24 ± 0.09 M^−1 with LC3B (value is KA × 10^−6, ± = fitting error) and 0.41 ± 0.02 M^−1 in the assay with UFC1 [1] (ITC, 25 °C, peptide vs UFC1, value is KA × 10^−6, ± = fitting error). This substance yielded a N in the assay with UFC1 [1] (ITC stoichiometry, peptide vs UFC1, ± = fitting error) of 1.03 ± 0.01. Moreover, in the assay with UFC1 [1] (ITC, 25 °C), the “affinity increase to UFC1 vs R3^388–404” value amounted to 3 fold. Moreover, the pKd with UFC1 [1] (ITC, VP-ITC, 25 °C, peptide ~400 µM titrated into 20–25 µM UFC1, 25 mM HEPES pH 7.5, 100 mM NaCl, one-site model, single ITC profile) is 5.62. In addition, the ΔH in the assay with UFC1 [1] (ITC, VP-ITC, 25 °C, peptide ~400 µM titrated into 20–25 µM UFC1, 25 mM HEPES pH 7.5, 100 mM NaCl, one-site model, single ITC profile, ± = fitting error) was -7.04 ± 0.07 kcal/mol. For the same substance, the “interaction with UFC1 (in words)” value in the assay with UFC1 [2] is on record as “mediated mostly by the UBA5 residues 386–404”.
